This note sets out measurements from PMC12171143, “The Arabidopsis E3 ubiquitin ligase PUB13 synergistically interacts with BON1 to regulate plant flowering and immunity” (Frontiers in Plant Science, 2025).

The target of the assay is T1, GST-PUB13 (Arabidopsis thaliana, UniProt Q9SNC6 1-660).
T1 construct: also called PUB13-GST; source: purified fusion protein from pGEX-6p-1; E. coli BL21 is named for the PUB13 construct in pGEX-6P-1 of the ubiquitination assay
T1 sequence (looked up): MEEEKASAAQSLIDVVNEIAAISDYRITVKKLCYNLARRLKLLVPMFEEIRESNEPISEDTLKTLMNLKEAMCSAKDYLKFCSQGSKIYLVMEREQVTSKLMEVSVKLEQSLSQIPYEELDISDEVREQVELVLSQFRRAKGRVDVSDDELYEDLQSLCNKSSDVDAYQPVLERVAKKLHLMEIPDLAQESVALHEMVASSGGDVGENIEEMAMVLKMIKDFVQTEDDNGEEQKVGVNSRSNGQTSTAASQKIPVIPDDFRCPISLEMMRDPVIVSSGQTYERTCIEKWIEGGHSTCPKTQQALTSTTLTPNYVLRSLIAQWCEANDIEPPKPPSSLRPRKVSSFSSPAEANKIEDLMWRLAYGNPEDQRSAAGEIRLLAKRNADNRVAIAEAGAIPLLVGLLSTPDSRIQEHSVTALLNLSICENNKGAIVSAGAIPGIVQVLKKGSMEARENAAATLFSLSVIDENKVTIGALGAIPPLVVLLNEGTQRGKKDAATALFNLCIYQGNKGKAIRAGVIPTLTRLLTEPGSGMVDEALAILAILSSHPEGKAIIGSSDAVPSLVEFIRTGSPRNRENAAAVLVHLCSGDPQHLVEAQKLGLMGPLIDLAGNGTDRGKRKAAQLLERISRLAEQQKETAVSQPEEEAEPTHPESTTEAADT
Put plainly: pull-down; purified fusion proteins mixed, glutathione Sepharose beads 4 h at 4°C, five washes with 1x TBST, eluate blotted with anti-MBP. To be noted: both partners purified.

B1: MBP-BON1 (natural protein, Arabidopsis thaliana, UniProt Q941L3 1-578, looked up)
chain: MGNCCSDVASGAGATAGVGGSGSSAALGATNDALDYYLKSKGFNGLFSQIELSFSASNLRDRDVLSKSDPMVVVYQKEKDATLSEVFRSEVVLNSLAPKWIKKFIVAYHFETVQTLVFRVYDVDTKFQNSREEMLKLDEQQFLGEATCALSEIITKSTRTSTLELKRKDGFAPQAQPHHGKLIIHAEESLASKISTEIVFRCSNLESKDLFSKSDPFLVVSKIVEHGTPIPVSKTEVRKNDLNPIWKPVFLSVQQVGSKDSPVIIECSDFNSNGKHSLIGKVQKSLSDLEKLHLAGQGINFSLPTGAGQNKVLKSQLFVDKFTETVHHTFLEYLASGFELNFMVAIDFTASNGNPRLPDSLHYIDPSGRLNAYQRAIMDVGEVLQFYDSDKRFPAWGFGARPIDAPVSHCFNLNGSSSYSEVDGIQGIMTSYTSALFNVSLAGPTLFGPVINAAAMIASASLAQGSRKYYVLLIITDGVITDLQETKDALVSASDLPLSILIVGVGGADFKEMEILDADKGERLESSSGRLASRDIVQFVALRDVQYGEISVVQALLAELPSQFLTYMRIRNMKPIPP
notes: source: purified fusion protein from pMAL-c4x
Regarding B1, the binding result is given as “binds”.
